Results taken from article doi:10.1101/2021.02.03.429618 (bioRxiv, 2021).

Target: T1, human 2-oxoglutarate dehydrogenase (hE1o) (human, UniProt Q02218 41-1023)
T1 sequence (looked up): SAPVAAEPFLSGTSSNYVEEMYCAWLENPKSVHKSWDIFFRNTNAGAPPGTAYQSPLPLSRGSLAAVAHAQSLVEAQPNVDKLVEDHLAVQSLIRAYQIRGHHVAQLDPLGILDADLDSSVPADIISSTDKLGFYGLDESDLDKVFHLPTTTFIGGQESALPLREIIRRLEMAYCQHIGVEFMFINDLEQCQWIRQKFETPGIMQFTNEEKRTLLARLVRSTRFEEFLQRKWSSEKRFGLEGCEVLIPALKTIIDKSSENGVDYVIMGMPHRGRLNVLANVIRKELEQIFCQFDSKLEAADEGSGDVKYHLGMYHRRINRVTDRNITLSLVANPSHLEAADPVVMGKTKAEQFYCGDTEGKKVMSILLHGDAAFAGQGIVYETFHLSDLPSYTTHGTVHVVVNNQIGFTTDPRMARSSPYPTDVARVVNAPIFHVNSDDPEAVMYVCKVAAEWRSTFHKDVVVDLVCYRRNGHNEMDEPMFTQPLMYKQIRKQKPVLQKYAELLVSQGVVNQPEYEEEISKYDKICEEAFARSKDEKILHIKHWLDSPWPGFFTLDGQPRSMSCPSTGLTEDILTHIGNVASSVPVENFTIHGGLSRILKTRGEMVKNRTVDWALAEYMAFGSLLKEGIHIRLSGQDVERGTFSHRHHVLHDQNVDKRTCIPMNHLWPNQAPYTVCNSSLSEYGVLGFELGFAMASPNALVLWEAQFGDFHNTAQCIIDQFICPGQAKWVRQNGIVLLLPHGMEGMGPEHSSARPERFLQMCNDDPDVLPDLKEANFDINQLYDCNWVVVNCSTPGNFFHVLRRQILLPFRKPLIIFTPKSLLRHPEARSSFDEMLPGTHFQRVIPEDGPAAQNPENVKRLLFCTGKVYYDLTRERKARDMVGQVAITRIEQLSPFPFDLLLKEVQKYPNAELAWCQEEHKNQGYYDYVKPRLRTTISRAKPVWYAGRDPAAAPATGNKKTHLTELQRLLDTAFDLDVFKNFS
Assay: cross-linking

B1: human dihydrolipoyl succinyltransferase (hE2o) (enzyme, UniProt P36957 68-453, looked up)
chain: DDLVTVKTPAFAESVTEGDVRWEKAVGDTVAEDEVVCEIETDKTSVQVPSPANGVIEALLVPDGGKVEGGTPLFTLRKTGAAPAKAKPAEAPAAAAPKAEPTAAAVPPPAAPIPTQMPPVPSPSQPPSGKPVSAVKPTVAPPLAEPGAGKGLRSEHREKMNRMRQRIAQRLKEAQNTCAMLTTFNEIDMSNIQEMRARHKEAFLKKHNLKLGFMSAFVKASAFALQEQPVVNAVIDDTTKEVVYRDYIDISVAVATPRGLVVPVIRNVEAMNFADIERTITELGEKARKNELAIEDMDGGTFTISNGGVFGSLFGTPIINPPQSAILGMHGIFDRPVAIGGKVEVRPMMYVALTYDHRLIDGREAVTFLRKIKAAVEDPRVLLLDL
B1: binds.
